The assay has as its target HLA B*07 (Homo sapiens, UniProt P01889). Nature of the assay: T2B7 binding assay (stabilization of HLA B*07 on TAP-deficient T2 cells, FACS). Particulars: for Avg. Fold Inc. @ 200: fold increase over background; for Avg. Fold Inc. @ 200 / Avg. MFI 200: peptide at 200 ug/ml; for Avg. MFI 200: mean fluorescence index; for Binding number (binding score): numerical sum of all the positive assays; for Binding strength: rated strong, moderate, weak or none by number of significantly positive wells. On the procedure: Triplicate wells of peptide at 10, 20, 200 ug/ml were evaluated in each of the T2 B7 binding assays; each assay was repeated 4 times. […] The “binding score” column provides the numerical sum of all the positive assays in the binding summary column.
The T2B7 binding assay method is well described in the literature and operational in the laboratory. This assay relies on the ability of exogenously added peptides to stabilize the class I MHC/beta 2 microglobulin structure on the surface of transporters associated with antigen processing (TAP)-deficient cell lines. Briefly, HLA B*07 T2 cell lines were prepared by incubating overnight (16 hours) at 26° C. Just prior to the binding assay these cells were washed twice in serum-free media. Solutions of the test peptides at three concentrations (final concentration of 10, 20, and 200 ug/ml in RPMI 1640 (Sigma, St. Louis, Mo.)) were plated in triplicate wells of a 96 well, round-bottom assay plate (Beckton Dickinson, Lincoln Park, N.J.). Sixteen wells containing cells without peptide were included in each plate, serving as the no-peptide control (background control) for the assay.
100,000 cells were added to each well, and the plates were then incubated for four hours at 37° C., 5% CO2 The plates were then spun at 110×g for 10 minutes at 4° C., supernatant is discarded and the remaining cells are re-suspended. One hundred uL of diluted primary antibody-containing hybridoma supernatant (1:10 dilution of ME1 supernatant produced by HB-119 cell line from ATCC) in staining buffer (PBS, 5% FBS, 0.1% sodium azide) was added to all of the wells except 8 wells per assay plate (each containing 200 ug/ml of one study peptide, these wells served as controls for non-specific binding of secondary antibody). Primary antibody was incubated with the peptide-pulsed cells for 30 minutes at 4° C. After washing three times, the cells were re-suspended, and 100 uL of a 1:250 dilution of FITC-labeled secondary antibody (FITC labeled Goat F(ab′)2 Anti-mouse IgG (H+L) from Caltag) in staining buffer were added to all wells. The plates were incubated for 30 minutes at 4° C., and subsequently washed three times. The contents of each well were then resuspended in 200 uL of fixing buffer (PBS, 1% paraformaldehyde), and aliquoted into FACS tubes.
The 16 negative control wells in each plate contained no peptide but did contain cells, primary antibody and secondary antibody. An additional set of triplicate wells was plated with peptide at the highest concentration (200 ug/ml), but no primary antibody was added to the wells to control for non-specific secondary antibody binding. One positive control peptide (the known B*07 binder) was tested at three concentrations (in triplicate wells) in each assay plate.
Following fixing, the presence of fluorescent secondary antibody on the surface of T2 cells (gated to the appropriate cell size) was measured at 488 nm on a FACScan flow cytometer (Becton-Dickinson, New Jersey). The mean linear fluorescence […] of 10,000 events was measured and compared to the background fluorescence of cells plated in (no peptide) control wells. A positive response was defined as a 10% increase over baseline MLF and p<0.05, in more than one concentration in each of four assays. The assays are repeated 4 times for each concentration of peptide. Each peptide was tested in a total of 36 wells (triplicate wells, three concentrations, four assays).

“And” between values parts separate entries of the source, which are not always exact repeats. Identical values can stand only once.

PEDIDCWCTK [WNVB7 3399]: the “stabilization of HLA B*07 on the surface of T2B7 cells” value (“stabilization” for short) is recorded as “did not stabilize T2B7 to a significant degree”, the “Avg. Fold Inc. @ 200” value turned out to be 1.1, the “Avg. MFI 200” value is listed as 990.3 and the “Binding number (binding score)” value worked out at 1. Also, the Binding strength entry is given as “non-binder (did not bind (binding score of 2))”.

As to SPHRVPNYNL [WNB7 020], the “affinity to B*07 in vitro compared with previously published B*07 epitope GPGHKARVLA (from HIV-1)” value is on record as “much greater affinity”, the “Avg. Fold Inc. @ 200” value amounted to 2.5, the “Avg. MFI 200” value came out at 1607.9 and the “Binding number (binding score)” value worked out at 12. The Binding strength entry was “strong (stabilized HLA B7 on the surface of T2B7 cells at more than two concentrations in all four replicate assays, receiving a total binding score of 10, 11, 11, 12, and 12)”.

For RPRWIDARVY [WNB7 017], the “affinity to B*07 in vitro compared with previously published B*07 epitope GPGHKARVLA (from HIV-1)” value is on record as “much greater affinity”, the “Avg. Fold Inc. @ 200” value amounted to 1.9, the “Avg. MFI 200” value was 1714.0 and the “Binding number (binding score)” value was 11. The Binding strength entry was “strong (stabilized HLA B7 on the surface of T2B7 cells at more than two concentrations in all four replicate assays, receiving a total binding score of 10, 11, 11, 12, and 12)”.

For IPAGFEPEML [WNB7 008], the “affinity to B*07 in vitro compared with previously published B*07 epitope GPGHKARVLA (from HIV-1)” value is “much greater affinity”, the “Avg. Fold Inc. @ 200” value is on record as 1.9, the “Avg. MFI 200” value was 1207.4 and the “Binding number (binding score)” value was determined as 10. In addition, the Binding strength result is “strong (stabilized HLA B7 on the surface of T2B7 cells at more than two concentrations in all four replicate assays, receiving a total binding score of 10, 11, 11, 12, and 12)”.

As to PFPESNSPIS [WNVB7 3411], the “stabilization” value is “did not stabilize T2B7 to a significant degree”, the “Avg. Fold Inc. @ 200” value was 1.0, the “Avg. MFI 200” value is 626.7 and the “Binding number (binding score)” value worked out at 1. For the same sequence, the Binding strength entry is given as “non-binder (did not bind (binding score of 2))”.

Turning to RPQRHDEKTL [WNB7 019], the “affinity to B*07 in vitro compared with previously published B*07 epitope GPGHKARVLA (from HIV-1)” value is listed as “much greater affinity”, the “Avg. Fold Inc. @ 200” value was determined as 2.8, the “Avg. MFI 200” value is given as 1644.6 and the “Binding number (binding score)” value amounted to 11. The Binding strength entry is “strong (stabilized HLA B7 on the surface of T2B7 cells at more than two concentrations in all four replicate assays, receiving a total binding score of 10, 11, 11, 12, and 12)”.

On to GPGHEEPQLV [WNB7 011], for which the “Avg. Fold Inc. @ 200” value was found to be 1.0, the “Avg. MFI 200” value is 848.9, the “Binding number (binding score)” value amounted to 2 and the Binding strength entry is “non-binder (did not bind (binding score of 2))”.

Consider TPGLRCLNLD [WNB7 024], for which the “Avg. Fold Inc. @ 200” value amounted to 1.0, the “Avg. MFI 200” value was found to be 849.6, the “Binding number (binding score)” value turned out to be 2 and the Binding strength result is listed as “non-binder (did not bind (binding score of 2))”.

For the sequence AVKDELNTLL [WNB7 004], the “Avg. Fold Inc. @ 200” value was 1.0, the “Avg. MFI 200” value is 842.5, the “Binding number (binding score)” value was 0 and the Binding strength result is “non-binder (did not bind (binding score of 2))”.

APAYSFNCLG [WNB7 005]: the “Avg. Fold Inc. @ 200” value is listed as 1.2 and the “Avg. MFI 200” value was found to be 743.5. The “Binding number (binding score)” value (listed as 0005) is 8. For the setting “listed as WNVB7 0005”, the “Binding number (binding score)” value stood at 8 and the Binding strength result is given as “moderate (stabilized HLA B*07 to a moderate degree (receiving binding scores of 6 to 8))”.

As for NPMILAAGLI [WNB7 007], the “Avg. Fold Inc. @ 200” value turned out to be 1.1, the “Avg. MFI 200” value is 944.6, the “Binding number (binding score)” value is reported as 2 and the Binding strength result was “non-binder (did not bind (binding score of 2))”.

Regarding EPPEGVKYVL [WNB7 013], the “Avg. Fold Inc. @ 200” value is 1.1 and the “Avg. MFI 200” value was found to be 681.7. Also, for the setting “listed as WNVB7 0013”, the “Binding number (binding score)” value turned out to be 6 and the Binding strength result is given as “moderate (stabilized HLA B*07 to a moderate degree (receiving binding scores of 6 to 8))”.

Take “GPGHKARVLA [HIV-1 B7 1291, reference compound]”: the “Avg. Fold Inc. @ 200” value was 2.2 and 1.5 and 1.6; the “Avg. MFI 200” value was 1423.8 and 1370.9 and 1003.9; the “Binding number (binding score)” value is 8 and 9; the Binding strength entry is recorded as “moderate (stabilized HLA B*07 to a moderate degree (receiving binding scores of 6 to 8))”. Moreover, for the setting “listed as WC 1291”, the “Binding number (binding score)” value is on record as “eight to nine” and the Binding strength entry is reported as “moderately well”.

On to TPAAPSYTLK [WNB7 009], for which the “Avg. Fold Inc. @ 200” value is recorded as 1.5 and the “Avg. MFI 200” value is 954.5. For the setting “listed as WNVB7 0009”, the “Binding number (binding score)” value was 8 and the Binding strength entry is “moderate (stabilized HLA B*07 to a moderate degree (receiving binding scores of 6 to 8))”.

For VPGTKIAGML [WNB7 018], the “Avg. Fold Inc. @ 200” value is 1.7 and the “Avg. MFI 200” value is 1088.4. Moreover, where the note is “listed as WNVB7 0018”, the “Binding number (binding score)” value was 6 and the Binding strength entry is recorded as “moderate (stabilized HLA B*07 to a moderate degree (receiving binding scores of 6 to 8))”.

For KPTGSASSLV [WNB7 015], the “Avg. Fold Inc. @ 200” value worked out at 1.7 and the “Avg. MFI 200” value was found to be 1070.2. In addition, for the setting “listed as WNVB7 0015”, the “Binding number (binding score)” value is 6 and the Binding strength result is “moderate (stabilized HLA B*07 to a moderate degree (receiving binding scores of 6 to 8))”.

Take RPAADGRTVM [WNB7 023]: the “affinity to B*07 in vitro compared with previously published B*07 epitope GPGHKARVLA (from HIV-1)” value was “much greater affinity”, the “Avg. Fold Inc. @ 200” value is on record as 1.5, the “Avg. MFI 200” value was 979.1 and the “Binding number (binding score)” value is listed as 12. Further, the Binding strength result is “strong (stabilized HLA B7 on the surface of T2B7 cells at more than two concentrations in all four replicate assays, receiving a total binding score of 10, 11, 11, 12, and 12)”.

In the case of VPCRGQDELV [WNB7 010], the “Avg. Fold Inc. @ 200” value turned out to be 1.0, the “Avg. MFI 200” value is 658.6, the “Binding number (binding score)” value is reported as 4 and the Binding strength result is on record as “weak (weak binders (binding score of 4))”.

As for PRTNTILEDN [WNVB7 3415], the “stabilization” value is recorded as “did not stabilize T2B7 to a significant degree”, the “Avg. Fold Inc. @ 200” value is reported as 0.9, the “Avg. MFI 200” value came out at 778.6 and the “Binding number (binding score)” value was 0. Besides, the Binding strength entry is “non-binder (did not bind (binding score of 2))”.

On to PETPQGLAKI [WNVB7 3403], for which the “stabilization” value is listed as “did not stabilize T2B7 to a significant degree”, the “Avg. Fold Inc. @ 200” value is listed as 1.0, the “Avg. MFI 200” value was found to be 588.9 and the “Binding number (binding score)” value came to 0. For the same sequence, the Binding strength entry is “non-binder (did not bind (binding score of 2))”.

Source of the values: patent US20050048073A1, “Methods of determining west nile virus epitopes and method of using the same” (priority 2001, published 2005).
